Target: the molecule itself
Assay: crystal structure; apo-hIRE1 (no nucleotide), hanging-drop vapor diffusion, 18-20% PEG3350, 0.2 M sodium malonate, Bis-Trispropane pH 6.5, 18°C; 2 molecules in the asymmetric unit

B1: cytoplasmic region of human IRE1 (residues 547-977) (domain or fragment, UniProt O75460 547-977, looked up)
chain: GSSPSLEQDDGDEETSVVIVGKISFCPKDVLGHGAEGTIVYRGMFDNRDVAVKRILPECFSFADREVQLLRESDEHPNVIRYFCTEKDRQFQYIAIELCAATLQEYVEQKDFAHLGLEPITLLQQTTSGLAHLHSLNIVHRDLKPHNILISMPNAHGKIKAMISDFGLCKKLAVGRHSFSRRSGVPGTEGWIAPEMLSEDCKENPTYTVDIFSAGCVFYYVISEGSHPFGKSLQRQANILLGACSLDCLHPEKHEDVIARELIEKMIAMDPQKRPSAKHVLKHPFFWSLEKQLQFFQDVSDRIEKESLDGPIVKQLERGGRAVVKMDWRENITVPLQTDLRKFRTYKGGSVRDLLRAMRNKKHHYRELPAEVRETLGSLPDDFVCYFTSRFPHLLAHTYRAMELCSHERLFQPYYFHEPPEPQPPVTPDAL
Question: B1 was tested. Which “stoichiometry N” value did it give?
Answer: 2

Reference: publication PMC4536996, “Molecular mechanisms of human IRE1 activation through dimerization and ligand binding” (Oncotarget, 2015)
